{
  "source": "paper PMC3397946",
  "about": "“Identification and Characterization of the Cognate Anti-Sigma Factor and Specific Promoter Elements of a T. tengcongensis ECF Sigma Factor”",
  "binders": {"B1": {"name": "D-5-6c (-30C to T) (dsDNA)", "DNA 1": "TGTTATCTTTTGTGTAGATTTTCGTCTATAAAGGTG", "DNA 2": "GACGAAAATCTACACAAAAGATAACA"}, "B2": {"name": "D-5-BM3 (-9TA-8 to CC) (dsDNA)", "DNA 1": "TGTTACCTTTTGTGTAGATTTTCGTCCCTAAAGGTG", "DNA 2": "CGAAAATCTACACAAAAGGTAACA"}, "B3": {"name": "D-5-b6a/-12 (-8A to G) (dsDNA)", "DNA 1": "TGTTACCTTTTGTGTAGATTTTCGTCTGTAAAGGTG", "DNA 2": "CGAAAATCTACACAAAAGGTAACA"}, "B4": {"name": "D-5/-12 (dsDNA)", "DNA 1": "TGTTACCTTTTGTGTAGATTTTCGTCTATAAAGGTG", "DNA 2": "CGAAAATCTACACAAAAGGTAACA"}, "B5": {"name": "D-5-b8a/-12 (-6A to G) (dsDNA)", "DNA 1": "TGTTACCTTTTGTGTAGATTTTCGTCTATGAAGGTG", "DNA 2": "CGAAAATCTACACAAAAGGTAACA"}, "B6": {"name": "D-5-b5t/-12 (-9T to G) (dsDNA)", "DNA 1": "TGTTACCTTTTGTGTAGATTTTCGTCGATAAAGGTG", "DNA 2": "CGAAAATCTACACAAAAGGTAACA"}, "B7": {"name": "D-5-7c (-29C to T) (dsDNA)", "DNA 1": "TGTTACTTTTTGTGTAGATTTTCGTCTATAAAGGTG", "DNA 2": "GACGAAAATCTACACAAAAAGTAACA"}},
  "key": {"Tt-RpoE1 [1]": {"molecular_target": "T1, Tt-RpoE1 (Thermoanaerobacter tengcongensis MB4T, UniProt Q8RCT7 1-162)", "T1 sequence": "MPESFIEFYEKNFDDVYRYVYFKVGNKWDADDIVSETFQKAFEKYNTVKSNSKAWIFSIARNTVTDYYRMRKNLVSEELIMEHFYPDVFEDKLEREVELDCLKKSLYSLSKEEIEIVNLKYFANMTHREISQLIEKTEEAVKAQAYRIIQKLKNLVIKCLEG", "assay": "EMSA; 5 uM protein; abolished; 50 mM Tris-HCl pH 8.0, 10 mM MgAc2, 30 mM NaCl, 1 mM DTT, 5% glycerol, 30 ug/ml BSA, 0.5 mM EDTA, 1 ug poly(dI-dC), 20 fmol probe in 20 ul, 25 C, 20 min", "conditions": "protein: recombinant; tags: His (pET28a); label: 5'-32P top strand; fork: top 3' overhang 10 nt"}, "Tt-RpoE1 [2]": {"molecular_target": "T1, Tt-RpoE1", "assay": "EMSA; 5 uM protein; little effect; 50 mM Tris-HCl pH 8.0, 10 mM MgAc2, 30 mM NaCl, 1 mM DTT, 5% glycerol, 30 ug/ml BSA, 0.5 mM EDTA, 1 ug poly(dI-dC), 20 fmol probe in 20 ul, 25 C, 20 min", "conditions": "protein: recombinant, tags: His (pET28a), label: 5'-32P top strand"}, "Tt-RpoE1 [3]": {"molecular_target": "T1, Tt-RpoE1", "assay": "EMSA; 5 uM protein; parental; 50 mM Tris-HCl pH 8.0, 10 mM MgAc2, 30 mM NaCl, 1 mM DTT, 5% glycerol, 30 ug/ml BSA, 0.5 mM EDTA, 1 ug poly(dI-dC), 20 fmol probe in 20 ul, 25 C, 20 min", "conditions": "protein: recombinant; tags: His (pET28a); label: 5'-32P top strand; fork: top 3' overhang 12 nt"}, "Tt-RpoE1 R69A": {"molecular_target": "T2, Tt-RpoE1 R69A (Thermoanaerobacter tengcongensis MB4T, UniProt Q8RCT7 1-162, R69A)", "T2 sequence": "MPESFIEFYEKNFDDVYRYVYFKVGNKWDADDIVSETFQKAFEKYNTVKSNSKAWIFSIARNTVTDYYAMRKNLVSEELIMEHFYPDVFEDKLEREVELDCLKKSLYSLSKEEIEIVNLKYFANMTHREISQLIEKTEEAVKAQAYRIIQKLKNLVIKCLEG", "assay": "EMSA; 5 uM protein; affinity remained; 50 mM Tris-HCl pH 8.0, 10 mM MgAc2, 30 mM NaCl, 1 mM DTT, 5% glycerol, 30 ug/ml BSA, 0.5 mM EDTA, 1 ug poly(dI-dC), 20 fmol probe in 20 ul, 25 C, 20 min", "conditions": "protein: recombinant; tags: His (pET28a); label: 5'-32P top strand; fork: top 3' overhang 12 nt"}, "Tt-RpoE1 Y67A": {"molecular_target": "T3, Tt-RpoE1 Y67A (Thermoanaerobacter tengcongensis MB4T, UniProt Q8RCT7 1-162, Y67A)", "T3 sequence": "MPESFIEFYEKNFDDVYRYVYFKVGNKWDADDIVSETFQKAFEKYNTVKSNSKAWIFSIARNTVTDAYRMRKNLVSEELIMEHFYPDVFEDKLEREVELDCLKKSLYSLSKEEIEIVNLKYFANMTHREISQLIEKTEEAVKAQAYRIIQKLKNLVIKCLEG", "assay": "EMSA; 5 uM protein; affinity remained; 50 mM Tris-HCl pH 8.0, 10 mM MgAc2, 30 mM NaCl, 1 mM DTT, 5% glycerol, 30 ug/ml BSA, 0.5 mM EDTA, 1 ug poly(dI-dC), 20 fmol probe in 20 ul, 25 C, 20 min", "conditions": "protein: recombinant; tags: His (pET28a); label: 5'-32P top strand; fork: top 3' overhang 12 nt"}},
  "data": [
    {"binder": "B1", "values": [
      {"measurement": "binding result", "setting": "Tt-RpoE1 [1]", "value": "no binding"}
    ]},
    {"binder": "B2", "values": [
      {"measurement": "binding result", "setting": "Tt-RpoE1 [2]; fork: top 3' overhang 12 nt", "value": "binds"}
    ]},
    {"binder": "B3", "values": [
      {"measurement": "binding result", "setting": "Tt-RpoE1 [2]; fork: top 3' overhang 12 nt", "value": "binds"}
    ]},
    {"binder": "B4", "values": [
      {"measurement": "binding result", "setting": "Tt-RpoE1 [3]", "value": "binds"},
      {"measurement": "binding result", "setting": "Tt-RpoE1 R69A", "value": "binds"},
      {"measurement": "binding result", "setting": "Tt-RpoE1 Y67A", "value": "binds"}
    ]},
    {"binder": "B5", "values": [
      {"measurement": "binding result", "setting": "Tt-RpoE1 [2]; fork: top 3' overhang 12 nt", "value": "binds"}
    ]},
    {"binder": "B6", "values": [
      {"measurement": "binding result", "setting": "Tt-RpoE1 [2]; fork: top 3' overhang 12 nt", "value": "binds"}
    ]},
    {"binder": "B7", "values": [
      {"measurement": "binding result", "setting": "Tt-RpoE1 [2]; fork: top 3' overhang 10 nt", "value": "binds"}
    ]}
  ]
}
